Results from the DeepSol protein solubility set.

Test: soluble on expression in E. coli; label from the status in PepcDB or PDB records

| Sequence | soluble on expression in E. coli |
| --- | --- |
| MGSDKIHHHHHHMTNYIEEYCAQIRRMGSAGLIAKPILVDQDGTYTMTYVPHEHLNLGARLVLVSTTPGHAHVRLAAAVTEELLQARTPGRVIQRENKRRVELGGQLIRPNLIRMLDHFRAPELVGLPHAAALWNEGFEQFQPLALLPCATTRRGLAFNGTLEDLLAAPMLRAAFEAHFLGALRQMRPDAFYIALGRTAWSGLRHAASRRLLAKHQLLGMMPVPARAGNMVRYFLREISANDLSPNDPVRHRVDWLDAAHTELMANVQKVRAANMPPEGPNYLIA | not soluble |
| MSLKAANRYVAGEKRSDGLAIARKLQAKGYGISLENIGENTKLLAQCREAKMEFDQLIEDVGAIAPGQTVSFDLSHIGLSYQFDTAYGHLIELAEKANEHEVTLMISMEESTKTDQILAVYRQAAELYSNIGITLQAHLFRTPDDLRKLVQLPGKIRIVKGAYQEPSHLAMERSDYLNNRYLELVDHLVSTNHPVSVATHDQKLLEEMERRQFLQSTDVEIEMLYGIQPSQLKLFKEKGYQTRVYLTYGHEWFLYLCHRLAEYPENIYTALIDIINPSLPKVDDMYEGHHHHHH | not soluble |
| PNSPINKLVLNDIGPQIPIHGLRRIAKYAGKAPDFKSLEEAKQHFKASYADFGITNEKQWDIFTKNSVEQRGPNLYVTKMDPAIKKSKSILQIISEFFRHPHKALEGIFYDINLWSIWKQIKCPVIVIHGVNSDILTSEIITQMKKTHALTEVYEVENAGHAPALLDLTVHQRIEDWLATH | not soluble |
| MGSDKIHHHHHHMRVFVARQPIFNRKEQVVAYELLYRESEENVYSAKDGDQATTDLVINSFLNIGIEKLTEGKRCFVNFTESLMFSNLPTSFNPKQLVIEILEDIPITPALISRCKELKKMGYMLALDDFYAINPQDEDLLEKLMSYIDILKIDFLKTTRMERRTILQTYGCRGLIFLAEKVETRKEYKQAVQDGFQLFQGYFFSEPRIISGHDLSTHFYSYYELLNELSKEQPNIKRVTEYIERDLSLSYQILKFLNSSHSRLSQKIESIQQAIMLLGFNEIKRWIYILSFKDLSRKGHSSKHEIIKISLIRAKLCELLARKTSRPQPASYMLIGMFSLIDTLLHREIEEIVQELPLKDEVGQALLGHQNDYYQMLELVKLIESNNWDTCSELGNQLDKEEAYECYLEALEWCHNLMDAK | not soluble |
| RSKTVILAKNLPAGTLAAEIQETFSRFGSLGRVLLPEGGITAIVEFLEPLEARKAFRHLAYSKFHHVPLYLEWAPIGVFGAAPQKKDSQHEQPAEKAE | soluble |
| MPRLDLCAKRTTDQCTSRVRLATRKGLTKLLLCSRESSIFKDEDIEQDDLRSSRTPWAALPPPPIKPIADSFRCDALVIGAGITGALVAERLTRQGRQVVIIDRELPSLGSTVASTAMLLWETDRPLFELAQLYNFEKAVRCYRASHHAARGLLALVTDHGIACQMRPRLSLYLAVDDSPKLVRNEYALRSRADLPTLFLDRVELLNRFGIARAGALLSRDAADADPVRLTRGLLDVSLQRGARLLKANAVAYDSAASTVTVGLENGLSIEARHVVLATGYVMPNIVGSTSNQPASSWAIATRRRPNALWPEQALIWEATRNYHYARTTPDGRVIFGGEDDDAIIDPEARAAATPAKVRALKERLKALWPRASTEVAFTWSGAFDTTRDGLPLIGAVPGYRNILAAFGYGGNGITFSFLAAELLGTLLSGGSSPLLDVLALDRDLPANDAPSDSQALEHHHHHH | soluble |
| MAHHHHHHMNAVKLPEEWETLCSTNDAEVIHECINGVFRRLLANLLLDFNNPKLRQVKKDNKALHRLTDSLPAGFIEFLFSSIGFVEHDDVFIFEGSPESLKHGDAVLSYIEDSFGKERLQAAECELHRLRNLAIKKAENGLAPREMMTATAPLPRTQPLPQEEDAKRQAQHSGTEKDVAEEHAVKETVRKTLLNTGRVRNGFFEARDFSVRIMQHGRVYACTEKCPDHCVEVHWHLLTGRNILYSHLAHLSADGTRLLHLGPEHGYQYNSLPGSANFGKMIHFSEKLMDENGRLVHIKNDDKPVTACIYCGRAFAQLLL | not soluble |
| MNKNKPFIVVIVGPTASGKTELSIELAKRINGEIISGDSMQVYKHMNIGTAKVTPEEMDGIPHHLIDILNPDDTFSAYEFKRLAEDLITDITNRGKVPIIAGGTGLYIQSLIYNYELEDETVTPAQLSIVKQKLSALEHLDNQQLHDYLAQFDAVSAENIHPNNRQRVLRAIEYYLKTKKLLSNRKKVQQFTENYDTLLLGIEMSRKTLYSRINKRVDIMLDHGLFREVQQLVEQGYESCQSMQAIGYKELIPVINGQMIYEDAVNDLKQHSRQYAKRQMTWFKNKMSVHWLDKENMSLQMMLDEITTQIKMAGDPLEHHHHHH | not soluble |
| MSLKVSAHNGNSDPSGAVQRRQSFRKSKTEDTVGTGNNGAANGGGGGAAANNNQMLENDLLSKYMGNQSPARQQVKKNLLNGTSGGGESVPAKPKTYDARCYVQNGSINFGKIITDEVLAADYDLVEAAKKMSDFAGTTALIAVIHRTKLIVANVGDSRGVMCDFKGNAIPLSFDHKPQQVREQKRIADAGGFIAFKGVWRVAGILATSRALGDYPLKEKNLVIANPDVLSFDLVDHRPQFLILASDGLWDTFTNEEAVAYVRERLDEPHFGAKSIALQSYSRGSVDNITVLVIVLKNGRYEIGSSSNEGHHHHHH | soluble |
| MKTLSTMATLLALSLPVMAQECASDIMRTAPNLRYVYSTQGTVKDLHTGLTWMRCTFGKEWNAEQGRCTGQAQPLRWQAALQEVQAINHPGSRHRLHQFAGVKQWRMPNIKELSSLTEQACFAPAANETAFASGLVTEVGNYAAYLWSNTTRIEREEAWTWDAINGEIYAYSIHAHEMGLLLVADELEHHHHHH | soluble |
| MSLAFVPHVPRHSRGDNPPSASTASPAVLTLTGERTIPDLDIENYWFRRHQVVYQRLAPRCTARDVLEAGCGEGYGADLIACVARQVIAVDYDETAVAHVRSRYPRVEVMQANLAELPLPDASVDVVVNFQVIEHLWDQARFVRECARVLRGSGLLMVSTPNRITFSPGRDTPINPFHTRELNADELTSLLIDAGFVDVAMCGLFHGPRLRDMDARHGGSIIDAQIMRAVAGAPWPPELAADVAAVTTADFEMVAAGHDRDIDDSLDLIAIAVREGHHHHHH | soluble |
| MRTVAALLFLFTCLESFESSSATPVCTNGFTLINNKCLKLLNTPVNHKAAEISCSSFGATLVTVKNDHDNQAIATIVGSSTPLVWLGLYCFSSNSSQCLWDDESGSARSYNNFSSGFPLVALGQCVYYSTQGALTGKWLSAECESQRMAFVCELPTTFADNCLHNYNGYCYTFSSSPQTFIGAQSTCAQTCGNLASVHSPNENRYITTFAPQDYYYIGAIWKTDYSLRWMDGSAWDYNNIDPIYPNRYNYCLHMSTITTSGSGFWYGDDCSLSRKYVCKREAGVPCTTVPPPVTVRPSSTNPSNCNAGLLMSPGVFTSPNYPQNYFNNENCTYQLSTLGSYRITLKFSNFRTESNYDFVSVYDGPTTSSPSLGRYSGNIGSFYVSSSENNMLVTFTSDAGVVFQGFTARFYSVVHRS | not soluble |
| MAFRLAVDCLGFENHPREAIDAVLEYWSYHQELEFILVGDEKTFDGLDYLPKNITKQLASSCIDMTDTPLTARRKVNNSMQKAINLVRDGAADVVISAGSSAVYASLTYDGFGKIHKDVKSAFMSYVPTANNDWFYFLDVGANKNFTGKELYFLGLMADIFVKKTTNKISPRIALLNIGTEIHKGFDYHQEGYQLLNEDKHLNFTGFIEPRFLLDGVCDILVADGYSGNLVLKSMEGTFKTIARLLKQGYKRNPLAGLFSLGILKRIAKRFDYKNNAGAVVIGLNKLALKTHGSADKQQFLSTIRLAHTSLKSDLINAIKSSLDNYEK | soluble |
| GMARRDISGAVDFAYLEGFAAGDFAVVDEVLALFREQAALWAPMLDPTHPGWKDAVHTVKGAARGVGAFNLGEVCERCEAGQESLEGVRTALDAALLDIAAYAHEQALRSLKG | soluble |
| MSLTEKVSVFALGGAGEIGKNMYVVELDEDIFVIDAGLMFPGDEMLGIDKVIPDISYLKENKERIQGIFITHGHEDHIGALSYVLRDLKVPVYGTRLTLGLIEIKLKEAGLLKKADLRPIDAKTKLTVAGHFITFFRVNHSIPDAVGVCIQTSQGAIVHTGDFKFDYTPVDGKQADFGKIAAIGQRGVLCLLSDSTNAERPGMSGSESTVGSELNDVIYEAPGRVIVASFASNVHRLQQVFAAAEANNEGHHHHHH | soluble |
